What is called Kd is the concentration at which binding is half-saturated. One may read the koff as the rate constant with which the complex falls apart. High values mean fast dissociation, low ones slow dissociation. What is called kon is the second-order rate constant of association. High values mean fast association, low ones slow association.

Experiment [1] concerns the target murine DLL4 (murine) (UniProt Q9JI71). The experiment is described as follows: Biacore (SPR), DVD-Ig and muDLL4.
Experiment [2] shares this target. The experiment in a line: Biacore (SPR), muDLL4; reference is the parental DVD.
Experiment [3] addresses human DLL4 (human) (UniProt Q9NR61). The experiment is described as follows: Biacore (SPR), huDLL4; reference is the parental DVD. A general note: In SPR one partner is held on a chip, and binding of the other changes the refractive index at the surface.
Experiment [4] shares this target. The experiment in a line: Biacore (SPR), DVD-Ig and huDLL4.

Chain of UniProt Q9JI71 (Q9JI71 27-525 limits assumed): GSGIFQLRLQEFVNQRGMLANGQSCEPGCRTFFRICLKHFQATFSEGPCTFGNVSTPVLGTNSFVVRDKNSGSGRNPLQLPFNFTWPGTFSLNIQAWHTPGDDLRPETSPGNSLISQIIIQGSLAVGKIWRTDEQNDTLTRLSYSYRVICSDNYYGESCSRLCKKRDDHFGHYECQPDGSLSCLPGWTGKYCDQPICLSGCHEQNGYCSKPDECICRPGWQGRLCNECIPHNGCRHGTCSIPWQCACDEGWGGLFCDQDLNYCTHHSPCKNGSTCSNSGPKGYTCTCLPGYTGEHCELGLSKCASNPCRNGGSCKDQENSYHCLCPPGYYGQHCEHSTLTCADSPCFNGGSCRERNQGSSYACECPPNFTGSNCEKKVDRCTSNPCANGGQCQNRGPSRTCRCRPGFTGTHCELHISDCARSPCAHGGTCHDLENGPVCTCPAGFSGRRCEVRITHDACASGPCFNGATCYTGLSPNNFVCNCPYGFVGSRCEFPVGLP
Chain of UniProt Q9NR61 (Q9NR61 27-524 limits assumed): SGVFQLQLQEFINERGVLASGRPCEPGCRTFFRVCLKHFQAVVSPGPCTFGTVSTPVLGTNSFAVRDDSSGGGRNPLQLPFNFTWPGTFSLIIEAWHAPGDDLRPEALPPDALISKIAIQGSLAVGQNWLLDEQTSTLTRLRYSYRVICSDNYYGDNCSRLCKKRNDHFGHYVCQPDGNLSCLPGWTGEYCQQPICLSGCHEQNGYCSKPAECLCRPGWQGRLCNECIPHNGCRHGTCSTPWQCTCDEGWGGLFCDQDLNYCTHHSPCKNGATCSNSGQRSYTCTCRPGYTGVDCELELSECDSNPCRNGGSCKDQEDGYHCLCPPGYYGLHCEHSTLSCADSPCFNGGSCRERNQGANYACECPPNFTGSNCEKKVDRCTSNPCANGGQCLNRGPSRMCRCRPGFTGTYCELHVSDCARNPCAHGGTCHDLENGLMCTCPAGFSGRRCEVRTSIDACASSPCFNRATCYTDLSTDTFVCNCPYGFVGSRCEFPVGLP

B1: h1A11.1-A10-S3-SS-Anti-VEGF DVD-Ig (bispecific antibody, part only; not given: anti-VEGF domains, h1A11.1 VL, constant regions, part only)
heavy, part: EVQLVESGGGLVQPGGSLRLSCAASGFTFRHFPMAWVRQAPGKGLEWVASISSSDGTSNYRDSVKGRFTISRDNAKSSLYLQMNSLRAEDTAVYYCARGYYNSPFAYWGQGTLVTVSSASTKGP
light, part: TVAAP
In the experiment with murine DLL4 (murine) [1], B1 registered a Kd of 0.774 nM, a koff of 0.000133 s⁻¹ and a kon of 171000 M⁻¹ s⁻¹. The KD ratio (parental DVD/AM DVD) with murine DLL4 (murine) [2] was determined as 53.8 fold.

B2: h1A11.1-A04-S3-SS-Anti-VEGF DVD-Ig (bispecific antibody, part only; not given: anti-VEGF domains, h1A11.1 VL, constant regions, part only)
heavy, part: EVQLVESGGGLVQPGGSLRLSCAASGFTFRHFPMAWVRQAPGKGLEWVATISSSDGATYYRDSVKGRFTISRDNAKSSLYLQMNSLRAEDTAVYYCARGYYNSPFAYWGQGTLVTVSSASTKGP
light, part: TVAAP
Take B2: in the experiment with murine DLL4 (murine) [1], the Kd was 0.451 nM, the koff came out at 8.12e-05 s⁻¹ and the kon came out at 180000 M⁻¹ s⁻¹. For the same molecule, in the experiment with murine DLL4 (murine) [2], the KD ratio (parental DVD/AM DVD) is 92.2 fold.

B3: h1A11.1-F7-S2-SS-Anti-VEGF DVD-Ig (bispecific antibody, part only; not given: anti-VEGF domains, h1A11.1 VL, constant regions, part only)
heavy, part: EVQLVESGGGLVQPGGSLRLSCAASGFTFRHFPMTWVRQAPGKGLEWVASISSSDGTINYRDSVKGRFTISRDNAKNSLYLQMNSLRAEDTAVYYCARGYYNSPFAYWGQGTLVTVSSASTKGP
light, part: TVAAP
In the experiment with murine DLL4 (murine) [1], B3 gave a Kd of 0.361 nM, a koff of 0.000483 s⁻¹ and a kon of 1.34e+06 M⁻¹ s⁻¹. Further, in the experiment with human DLL4 (human) [3], the KD ratio (parental DVD/AM DVD) was found to be 35.9 fold. In addition, the KD ratio (parental DVD/AM DVD) with murine DLL4 (murine) [2] is 59.2 fold. Moreover, in the experiment with human DLL4 (human) [4], the Kd was determined as 0.556 nM, the koff is 0.000319 s⁻¹ and the kon is 570000 M⁻¹ s⁻¹.

B4: h1A11.1-G7-S2-SS-Anti-VEGF DVD-Ig (bispecific antibody, part only; not given: anti-VEGF domains, h1A11.1 VL, constant regions, part only)
heavy, part: EVQLVESGGGLVQPGGSLRLSCAASGFTFNHFPMAWVRQAPGKGLEWVATISSSDWTPYYRDSVKGRFTISRDNAKNSLYLQMNSLRAEDTAVYYCARGYYNSPFAYWGQGTLVTVSSASTKGP
light, part: TVAAP
In the experiment with murine DLL4 (murine) [1], B4 yielded an equilibrium dissociation constant (Kd) of 1.57 nM, a koff of 0.000266 s⁻¹ and a kon of 169000 M⁻¹ s⁻¹. In addition, the KD ratio (parental DVD/AM DVD) with human DLL4 (human) [3] turned out to be 15.2 fold. For the same molecule, in the experiment with murine DLL4 (murine) [2], the KD ratio (parental DVD/AM DVD) was 13.6 fold. In the experiment with human DLL4 (human) [4], this molecule came in with a Kd of 1.32 nM, a koff of 0.000155 s⁻¹ and a kon of 117000 M⁻¹ s⁻¹.

B5: h1A11.1-B9-S2-SS-Anti-VEGF DVD-Ig (bispecific antibody, part only; not given: anti-VEGF domains, h1A11.1 VL, constant regions, part only)
heavy, part: EVQLVESGGGLVQPGGSLRLSCAASGFTFSHFPMAWVRQAPGKGLEWVASISSSDSTTNYRDSVKGRFTISRDNAKNSLYLQMNSLRAEDTAVYYCARGYYNSPFAYWGQGTLVTVSSASTKGP
light, part: TVAAP
In the case of B5, the Kd in the experiment with murine DLL4 (murine) [1] amounted to 1.23 nM; with human DLL4 (human) [4], 0.923 nM. Besides, the koff with murine DLL4 (murine) [1] amounted to 0.000205 s⁻¹; with human DLL4 (human) [4], 0.000106 s⁻¹. Also, the results for the kon in the experiment with murine DLL4 (murine) [1] and in the experiment with human DLL4 (human) [4] were 167000 M⁻¹ s⁻¹ and 115000 M⁻¹ s⁻¹, respectively. Moreover, the KD ratio (parental DVD/AM DVD) stood at 21.6 fold with human DLL4 (human) [3] and 17.4 fold in the experiment with murine DLL4 (murine) [2].

B6: h1A11.1-H3-S2-SS-Anti-VEGF DVD-Ig (bispecific antibody, part only; not given: anti-VEGF domains, h1A11.1 VL, constant regions, part only)
heavy, part: EVQLVESGGGLVQPGGSLRLSCAASGFTFRNFPMAWVRQAPGKGLEWVASISSSDGTTNYRDSVKGRFTISRDNAKSSLYLQMNSLRAEDTAVYYCARGYYNSPFAYWGQGTLVTVSSASTKGP
light, part: TVAAP
In the experiment with murine DLL4 (murine) [1], B6 registered a Kd of 1.49 nM, a koff of 0.000294 s⁻¹ and a kon of 197000 M⁻¹ s⁻¹. The KD ratio (parental DVD/AM DVD) with human DLL4 (human) [3] was determined as 19.1 fold. In the experiment with murine DLL4 (murine) [2], the KD ratio (parental DVD/AM DVD) stood at 14.3 fold. In the experiment with human DLL4 (human) [4], this molecule showed a Kd of 1.04 nM, a koff of 0.000136 s⁻¹ and a kon of 130000 M⁻¹ s⁻¹.

The values are drawn from patent US9915665.
